Among the data in paper PMC9266650 are other values, retold here.

The assay concerns the target T148-ADP-ribosylated-actin (100% TccC3-ADP-ribosylated actin) (not stated (purified from rabbit or chicken skeletal muscle)), P68135. Particulars: remark: other sources report otherwise.

B1: Actin-depolymerizing factor, P60981 1-165 (natural protein)
chain: MASGVQVADEVCRIFYDMKVRKCSTPEEIKKRKKAVIFCLSADKKCIIVEEGKEILVGDVGVTITDPFKHFVGMLPEKDCRYALYDASFETKESRKEELMFFLWAPELAPLKSKMIYASSKDAIKKKFQGIKHECQANGPEDLNRACIAEKLGGSLIVAFEGCPV
In turn, B1 came in with an other of 15 fold.
